Molecular target: the molecule itself
Assay: pulsed dipolar ESR spectroscopy

B1: Tm14C N125C homodimer, spin-labeled (domain or fragment)
chain: RRIEEVKERFVNLNRLFQELVGDFQAKSDQLVSVIQDMEKISENIMEELKKSGTNVDQIVERVKEASSQIGETLENIRSIEKLIQCIMRIARETNILALNATIEAARAGEAGKGFMIVANEVQNLSNETNEVTKQIVEKAREILESSQRSLENLEFMANLFETVGKTLQNMVRF
modifications: MTSSL nitroxide spin label on Cys125
For B1, which “stoichiometry N” value is on record?
The value was 2.

Reference: PMC2873776 (Biochemistry, 2010)
